Data set [1] addresses T1, dCas9-dVirD2 fusion (dead Cas9, dead VirD2) (Streptococcus pyogenes / Agrobacterium …, UniProt Q99ZW2 SEQ:46-1413+1453-1899). The data set can be described thus: negative control, dead VirD2; anti-biotin western. To be noted: label: 3' biotin.
For data set [2], the target named is T2, Cas9-VirD2 fusion (wild-type SpCas9 to wild-type VirD2) (Streptococcus pyogenes / Agrobacterium …, UniProt Q99ZW2;P06668 Q99ZW2:1-1368,P06668:1-424). Briefly: covalent binding, anti-biotin western; 10 mM MgCl2, 37 C. The settings on record: tags: SpCas9-VirD2 fusion, expressed in E. coli BL21(DE3); label: 3' biotin.
Data set [3] has as its target T3, VirD2-Cas9 fusion (wild-type VirD2 to wild-type SpCas9) (/ Streptococcus pyogenes, UniProt P06668;Q99ZW2 P06668:1-424,Q99ZW2:1-1368). Described as above. To be noted: tags: VirD2-SpCas9 fusion, expressed in E. coli BL21(DE3); label: 3' biotin.
For data set [4], the target named is T4, dCas9-VirD2 fusion (Streptococcus pyogenes / Agrobacterium …, UniProt Q99ZW2 SEQ:46-1413+1453-1899). Described as above. To be noted: label: 3' biotin.
Data set [5] has as its target T5, VirD2-dCas9 fusion (/ Streptococcus pyogenes, UniProt Q99ZW2 SEQ:46-492+510-1877). The data set is described as above. The settings on record: label: 3' biotin.
The target of data set [6] is T1, dCas9-dVirD2 fusion (dead Cas9, dead …). The data set can be described thus: EMSA; dead VirD2 does not bind RB probe. For orientation: Mobility shift assays separate free from complexed probe on a gel.
For data set [7], the target named is T4, dCas9-VirD2 fusion. The data set can be described thus: EMSA; denaturing gel mobility shift; 10 mM MgCl2.
In data set [8] the target is T5, VirD2-dCas9 fusion. The data set can be described thus: EMSA; denaturing gel mobility shift; 10 mM MgCl2.
Data set [9] addresses T2, Cas9-VirD2 fusion (wild-type SpCas9 to …). Briefly: EMSA; different shift pattern; 250 nM each, 10 mM MgCl2. To be noted: tags: SpCas9-VirD2 fusion, expressed in E. coli BL21(DE3).
Data set [10] concerns the target T3, VirD2-Cas9 fusion (wild-type VirD2 to …). The data set can be described thus: EMSA; denaturing gel mobility shift, Coomassie; 250 nM each, 10 mM MgCl2. The settings on record: tags: VirD2-SpCas9 fusion, expressed in E. coli BL21(DE3).

B1: virD2 reporter-B-L (ssDNA)
DNA: GTTTACCCGCCAATATATCCTGTCATTTTTTTTTT
In the case of B1, the binding result in data set [1] was “no binding”; in [2] it was “binds”; in data set [3], “binds”; in the data set with dCas9-VirD2 fusion [4] it was “binds”; with VirD2-dCas9 fusion [5], “binds”.

B2: pstv-cnt-RB-ssDNA (ssDNA)
DNA: CAGATCAATTCTCTTAGGTTTACCCGCCAATATATCCTGTCAAACACTGATAGTTTTCACAGTAGGGTG
Turning to B2, the binding result is “no binding” in [6]; “binds” with dCas9-VirD2 fusion [7]; “binds” with VirD2-dCas9 fusion [8]; “binds” in [9]; “binds” in data set [10].

The values above are taken from patent publication US20240124917, “COMPOSITIONS AND METHODS FOR NUCLEIC ACID DETECTION BY LATERAL FLOW ASSAYS” (King Abdullah University of Science and Technology, published 2024).
